Measurements reported in article PMC3280358.
Blank lines part the entries; values can stand above or below the substance they belong to.

Experiments:
Nbs1 1-382 = Nbs1 1-382 (UniProt O60934); assay: ITC
Nbs1 = Nbs1 (UniProt O60934); assay: far-western with FLAG-Nbs1; details: reference: nonphosphorylated NTD; sites T13

KD (Nbs1 1-382; reference: pS14 peptide, sites T13): gained; reference no detectable binding
KD (Nbs1 1-382; reference: pT13 peptide, sites S14): weaker; reference around 20
Substance: Rad51 NTD peptide (from UniProt Q06609) pT13/pS14 peptide

KD (Nbs1 1-382; reference: nonphosphorylated peptide, sites T13): gained; reference no detectable binding
Substance: Rad51 NTD peptide (from UniProt Q06609) pT13 peptide

binding against the reference (Nbs1): gained
Substance: Rad51 NTD, 1-86 (from UniProt Q06609) CK2-phosphorylated NTD
